# Measurements taken from patent publication US10272135B2, “Apolipoprotein O and fragments thereof for inducing apoptosis in a cancerous cell” (INSERM (INSTITUT NATIONAL DE LA SANTÉ ET DE LA RECHERCHE …, priority 2014, dated 2019).
# B1: ApoO: 198-amino acid apolipoprotein, SEQ ID NO: 1; tested by overexpression from expression vectors or transgene (protein, listed as Homo sapiens)
# chain: MFKVIQRSVGPASLSLLTFKVYAAPKKDSPPKNSVKVDELSLYSVPEGQSKYVEEARSQLEESISQLRHYCEPYTTWCQETYSQTKPKMQSLVQWGLDSYDYLQNAPPGFFPRLGVIGFAGLIGLLLARGSKIKKLVYPPGFMGLAASLYYPQQAIVFAQVSGERLYDWGLRGYIVIEDLWKENFQKPGNVKNSPGTK
# Experiments:
# [1] = tested on: fatty acid transporter (CD36 and FATP4); test: Real-time PCR of fatty acid transporter expression in cardiac myoblasts; type: cell-based; settings: ApoO cells vs control (FIG. 6A-B)
# Source text: After ethical committee approval, all patients in this study gave written consent for sample collection and molecular analysis prior to inclusion. Patients were carefully selected by physicians from the Department of Cardiology, Toulouse University Hospital, prior to coronary by-pass surgery. Bioinformatics. Microarray expression data from human heart samples were downloaded from the GEO repository (GSE1145). This series consisted of 107 myocardial samples collected from patients undergoing cardiac transplantation whose failure arises from different etiologies (e.g. idiopathic dilated cardiomyopathy, ischemic cardiomyopathy, valvular cardiomyopathy, and hypertrophic cardiomyopathy) and from “normal” organ donors whose hearts cannot be used for transplants. Arrays were intensity normalized and hierarchical clustering (average group linkage, Pearson correlation, threshold r=0.8) was applied to identify groups of co-expressed genes. […] All ApoO sequences within the expression vectors were verified by DNA double strand sequencing using ABI PRISM®BigDye™ Terminator version 3.1 Ready reaction cycle sequencing kit (Life Technologies SAS, Villebon sur Yvette) and loaded on an ABI 3130XL DNA sequencing instrument (Life Technologies SAS, Villebon sur Yvette). […]
# mouse liver = test: Hydrodynamics-based in vivo transfection of the mouse liver
# Source text: After ethical committee approval, all patients in this study gave written consent for sample collection and molecular analysis prior to inclusion. Patients were carefully selected by physicians from the Department of Cardiology, Toulouse University Hospital, prior to coronary by-pass surgery. Bioinformatics. Microarray expression data from human heart samples were downloaded from the GEO repository (GSE1145). This series consisted of 107 myocardial samples collected from patients undergoing cardiac transplantation whose failure arises from different etiologies (e.g. idiopathic dilated cardiomyopathy, ischemic cardiomyopathy, valvular cardiomyopathy, and hypertrophic cardiomyopathy) and from “normal” organ donors whose hearts cannot be used for transplants. Arrays were intensity normalized and hierarchical clustering (average group linkage, Pearson correlation, threshold r=0.8) was applied to identify groups of co-expressed genes. ApoO expression levels were plotted for the 107 human hearts tested and used to define relevant molecular pathways using both Toppgene and Ingenuity Pathway Analysis (Ingenuity systems, Redwood City, Calif., USA). ApoO subcellular localization was predicted using Mitopred, mitoprot and YLoc. Animals: All animal Studies followed the INSERM Institute Animal Facility guidelines and were approved by the animal care committees of the INSERM I2MC UMR 1048. All animal procedures were performed according to the guidelines of the French Ministry of Agriculture. Animals were housed at the Toulouse I2MC animal facility in a room lit 12 h per day (6 AM-6 PM) at an ambient temperature of 22+/−1° C. Construction of ApoO Expression Vectors To overexpress human ApoO (pTT-ApoO), the ApoO coding sequence was amplified using primers hApoO5BamPTT (SEQ ID NO: 2) and hApoO3BamPTT (SEQ ID NO: 3) and cloned into the BamH1 site of pTT expression vector. pSNAP-ApoO was generated by PCR amplification of pTT-ApoO using primers SnapApoEcorV-F (SEQ ID NO: 4) and SnapApoEcorV-R (SEQ ID NO: 5) and cloned into the EcoRV site of pSNAP-Tag® (Ozyme, Saint-Quentin-en-Yvelines, France). pGEX2T-ApoO was constructed by PCR amplification of pTT-ApoO using hApoOpGEX1FBam (SEQ ID NO: 6) and hApoOpGEX1RSma (SEQ ID NO: 7) and cloned into the Bam HI/Sma I site of pGEX2T (Promega, Charbonnières-les-Bains). All primers used in this work were synthesized by Eurogentec France (Angers). All restriction enzymes used were from New England Biolabs (Ozyme, Saint-Quentin-en-Yvelines). All ApoO sequences within the expression vectors were verified by DNA double strand sequencing using ABI PRISM®BigDye™ Terminator version 3.1 Ready reaction cycle sequencing kit (Life Technologies SAS, Villebon sur Yvette) and loaded on an ABI 3130XL DNA sequencing instrument (Life Technologies SAS, Villebon sur Yvette). Cell Culture and Tranfection of H9C2 Cardic Myoblasts H9c2 were obtained from the European Collection of Cell Cultures (Salisbury, England). H9c2 cells were cultured in Dulbecco's modified Eagle medium (Life Technologies SAS, Villebon sur Yvette) adjusted to contain 1.5 g/liter sodium bicarbonate and supplemented with antibiotic-antimycotic solution (Life Technologies SAS, Villebon sur Yvette) and 10% fetal bovine serum (FBS, AbCys s.a., Paris). Cells were plated on 10-cm diameter tissue culture dish and grown in a 5% CO2 incubator at 37° C. with saturating humidity with medium changes every 2 days. […]
molecule,measurement,setting,value
B1,fatty acid transporter (CD36 and FATP4) expression,[1],strongly increased
same,Caspase-3 activity in liver,mouse liver; 48 hours after transfection (FIG. 9e),confirmed
same,Bax expression in liver,mouse liver; 48 hours after transfection (FIG. 9d),confirmed
same,diglyceride levels in liver,mouse liver; ApoO transfected liver vs control vector (FIG. 8c),increased
same,intracellular triglycerides in liver,mouse liver; ApoO transfected liver vs control vector (FIG. 8d),did not significantly modify
same,oxygen consumption of isolated liver mitochondria,mouse liver; in vivo transfected mouse liver,significant increase
